Publication PMC5663709 (Scientific Reports, 2017)

B1: S40 IgG (antibody, V domains shown)
VH: EVQLVESGGGLVQPGGSLRLSCAASGFTIGDFGIHWVRQAPGKGLEWVAGIWPFGGYTYYADSVKGRFTISADTSKNTAYLQMNSLRAEDTAVYYCARFVNWDGDYMDYWGQGTLVTVSS
VL: DIQMTQSPSSLSASVGDRVTITCRASQDVGFYVAWYQQKPGKAPKLLISWSSYLYSGVPSRFSGSGSGTDFTLTISSLQPEDFATYYCQQYYNYPLTFGQGTKVEIK
notes: copies: 2 + 2
B2: S40 Fab (Fab, V domains shown)
VH: B1 VH
VL: B1 VL

Experiments:
[1] = target: recombinant hemagglutinin (HA) trimer of H1N1 A/California/07/2009, ectodomain (Influenza A virus A/California/07/2009 …, UniProt C3W5X2); assay: ELISA; settings: both partners purified
[2] = target: purified monomeric HA of H1N1 CA/09 (thrombin-digested ectodomain) (Influenza A virus A/California/07/2009 …, UniProt C3W5X2); assay: crystal structure; settings: both partners purified

| Binder | binding result [1] | binding result [2] |
| --- | --- | --- |
| B1 | binds |  |
| B2 |  | binds |
